According to patent US20100119588A1:
Where two headings read alike, the source gives them in different places.

Tests used:
[1] = biological target: hemagglutinin H3 on influenza virus A/Aichi/2/68 strain (H3N2) (influenza virus A/Aichi/2/68 (H3N2)) (UniProt P03437); test: cell-based or functional assay
[2] = biological target: hemagglutinin H3 on influenza virus A/Aichi/2/68 strain (H3N2) (influenza virus A/Aichi/2/68 (H3N2)) (UniProt P03437); test: cell-based or functional assay; remark: listed apart in the source

Substance | IC50(µM), plaque assay, infection of MDCK cells [1] [µM] | IC50(µM), plaque assay, infection of MDCK cells [2] [µM]
C18-s2(r1-8) (C18-VMTRPLRA peptide amide) | 226 | –
C18-s2(r1-5) (C18-RPLRA peptide amide) | – | 0.94
C18-s2(1-7) (C18-ARLPRTM peptide amide) | 9.1 | –
C18-s2(1-5) (C18-ARLPR peptide amide) | 3 | 1.55
C18-s2(1-4) (C18-ARLP peptide amide) | 21 | –
C18-s2(5-11) (C18-RTMVHPK peptide amide) | > 100 | –
C18-s2(1-6) (C18-ARLPRT peptide amide) | 5 | –
C18-s2(8-15) (C18-VHPKPAQP peptide amide) | 10.5 | –
C18-s2(r1-4) (C18-PLRA peptide amide) | – | 14
C18-s2(1-2) (C18-AR peptide amide) | > 100 | –
C18-s2(1-8) (C18-ARLPRTMV peptide amide) | – | 1.4
C18-s2(2-8) (C18-RLPRTMV peptide amide) | > 100 | –
C18-s2(1-4)P4A (C18-ARLA peptide amide) | > 100 | –
C18-s2(1-3) (C18-ARL peptide amide) | > 100 | –
